Reference: article PMC10464304, “Refined read‐out: The hUHRF1 Tandem‐Tudor domain prefers binding to histone H3 tails containing K4me1 in the context of H3K9me2/3” (Protein Science : A Publication of the Protein Society, 2023)
Values belong to the binder of their own block, whether it stands above or below them.

Tests used:
[1] = biological target: T1, fluorescently labeled H3 peptide with K4me1 and K9me2 (Homo sapiens); experiment: FP; conditions: domain or fragment; chains chain; modification not given; K4me1 (monomethyl-lysine at 4); K9me2 (dimethyl-lysine at 9); FITC-labeled
T1 chain: ARTKQTARKSTGGKAPRKQ

[2] = biological target: T2, fluorescently labeled H3 peptide with K9me2 (Homo sapiens); experiment: FP; conditions: domain or fragment; chains chain; modification not given; K9me2 (dimethyl-lysine at 9); FITC-labeled
T2 chain: ARTKQTARKSTGGKAPRKQ

[3] = biological target: T3, fluorescently labeled H3 peptide without modification (Homo sapiens); experiment: FP; conditions: domain or fragment; chains chain; modification not given; FITC-labeled
T3 chain: ARTKQTARKSTGGKAPRKQ

[4] = biological target: T4, fluorescently labeled H3 peptide carrying only K4me1 (Homo sapiens); experiment: FP; conditions: domain or fragment; chains chain; modification not given; K4me1 (monomethyl-lysine at 4); FITC-labeled
T4 chain: ARTKQTARKSTGGKAPRKQ

[5] = biological target: fluorescently labeled H3 peptide with K4me1 and K9me2; experiment: fluorescence polarisation; fluorescence anisotropy titration; 100 nM FITC-labeled peptide in the cuvette, protein added stepwise; 23°C; 100 mM KCl, 20 mM HEPES pH 7.5, 10% v/v glycerol

Kd [1]: 300 nM
Kd [2]: 640 nM
Kd [3]: > 9000 nM
Kd [4]: 3640 nM
B1: GST-fused Tandem-Tudor domain (TTD) of human UHRF1, residues 126-280, wild type, Q96T88 126-280 (protein)
chain: MWDETELGLYKVNEYVDARDTNMGAWFEAQVVRVTRKAPSRDEPCSSTSRPALEEDVIYHVKYDDYPENGVVQMNSRDVRARARTIIKWQDLEVGQVVMLNYNPDNPKERGFWYDAEISRKRETRTARELYANVVLGDDSLNDCRIIFVDEVFKI

fold preference over the H3K9me2 peptide [5]: > 2 fold
B2: GST-fused Tandem-Tudor domain (TTD) of human UHRF1, residues 126-280, wild type (domain or fragment)
chain: B1 chain
